B1: Mesoderm posterior protein 1 (Homo sapiens), Q9BRJ9 (parent)
chain: MAQPLCPPLSESWMLSAAWGPTRRPPPSDKDCGRSLVSSPDSWGSTPADSPVASPARPGTLRDPRAPSVGRRGARSSRLGSGQRQSASEREKLRMRTLARALHELRRFLPPSVAPAGQSLTKIETLRLAIRYIGHLSAVLGLSEESLQRRCRQRGDAGSPRGCPLCPDDCPAQMQTRTQAEGQGQGRGLGLVSAVRAGASWGSPPACPGARAAPEPRDPPALFAEAACPEGQAMEPSPPSPLLPGDVLALLETWMPLSPLEWLPEEPK

Variants of: B1
Conditions: with tfe2_human TCF3, P15923
tfe2_human TCF3, P15923, sequence (P15923 whole entry): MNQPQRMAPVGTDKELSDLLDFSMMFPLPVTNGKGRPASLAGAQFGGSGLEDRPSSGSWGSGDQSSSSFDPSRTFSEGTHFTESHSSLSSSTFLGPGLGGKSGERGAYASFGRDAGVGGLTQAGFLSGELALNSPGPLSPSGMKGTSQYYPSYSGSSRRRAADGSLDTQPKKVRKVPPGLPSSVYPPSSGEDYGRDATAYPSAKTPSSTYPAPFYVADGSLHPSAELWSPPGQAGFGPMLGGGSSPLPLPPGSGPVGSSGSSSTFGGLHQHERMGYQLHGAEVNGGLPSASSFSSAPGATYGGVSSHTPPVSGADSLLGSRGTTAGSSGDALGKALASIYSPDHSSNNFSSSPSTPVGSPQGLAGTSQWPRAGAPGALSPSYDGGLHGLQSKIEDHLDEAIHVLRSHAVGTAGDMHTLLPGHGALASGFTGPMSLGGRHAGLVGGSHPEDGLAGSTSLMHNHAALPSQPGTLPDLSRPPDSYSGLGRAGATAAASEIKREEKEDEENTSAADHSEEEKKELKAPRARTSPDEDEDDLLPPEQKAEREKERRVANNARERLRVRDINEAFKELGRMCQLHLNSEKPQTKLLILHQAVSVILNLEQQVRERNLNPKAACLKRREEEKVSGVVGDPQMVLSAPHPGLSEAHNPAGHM

Variant	effect of a mutation on the interaction
MAQPLCPPLSESWMLSAAWGPTRRPPPSDKDCGRSLVSSPDSWGSTPADSPVASPARPGTLRDPRAPSVGRRGARSSRLGSGQRQSASEREKLRMRTLARALHELRRFLPPSVAPAGQSLTKIETLRLAIRYIGHLSAVLGLSEESLQRRCRQRGDAGSPRGCPLCPDDCPAQMQTRTQAEGQGQGRGLGLVSAVRAGASWGSPPACPGARAAPEPRDPPALFAEAACPEGQAMEPSPPSPLLPGDVLALLETWMPLSPLEWLPEEPN [K268N]	with no effect
MAQPLCPPLSESWMLSAAWGPTRRPPPSDKDCGRSLVSSPDSWGSTPADSPVASPARPGTLRDPRAPSVGRRGARSSRLGSGQRQSASEREKLRMRTLARALHELRRFLPPSVAPAGQSLTKIETLRLAIRYIGHLSAVLGLSEESLQRRCRQRGDAGSPRGCPLCPGDCPAQMQTRTQAEGQGQGRGLGLVSAVRAGASWGSPPACPGARAAPEPRDPPALFAEAACPEGQAMEPSPPSPLLPGDVLALLETWMPLSPLEWLPEEPK [D168G]	decreasing interaction strength
MAQPLCPPLSESWMLSAAWGPTRRPPPSDKDCGRSLVSSPDSWGSTPADSPVASPARPGTLRDPRAPSVDRRGARSSRLGSGQRQSASEREKLRMRTLARALHELRRFLPPSVAPAGQSLTKIETLRLAIRYIGHLSAVLGLSEESLQRRCRQRGDAGSPRGCPLCPDDCPAQMQTRTQAEGQGQGRGLGLVSAVRAGASWGSPPACPGARAAPEPRDPPALFAEAACPEGQAMEPSPPSPLLPGDVLALLETWMPLSPLEWLPEEPK [G70D]	with no effect
MAQPLCPPLSESWMLSAAWGPTRRPPPSDKDCGRSLVSSPDSWGSTPADSPVASPARPGTLRDPRAPSVGRRGARSSRLGSGQRQSASEREKLRMRTLARALHKLRRFLPPSVAPAGQSLTKIETLRLAIRYIGHLSAVLGLSEESLQRRCRQRGDAGSPRGCPLCPDDCPAQMQTRTQAEGQGQGRGLGLVSAVRAGASWGSPPACPGARAAPEPRDPPALFAEAACPEGQAMEPSPPSPLLPGDVLALLETWMPLSPLEWLPEEPK [E104K]	decreasing interaction strength
MAQPLCPPLSESWMLSAAWGPTRRPPPSDKDCGRSLVSSPDSWGSTPADSPVASPARPGTLRDPRAPSVGRRGARSSRLGSGQRQSASEREKLRMRTLARALHELRRFLPPSVAPAGQSPTKIETLRLAIRYIGHLSAVLGLSEESLQRRCRQRGDAGSPRGCPLCPDDCPAQMQTRTQAEGQGQGRGLGLVSAVRAGASWGSPPACPGARAAPEPRDPPALFAEAACPEGQAMEPSPPSPLLPGDVLALLETWMPLSPLEWLPEEPK [L120P]	decreasing interaction strength

Source: IntAct's records for PubMed 26694203
